Reference: US12473560 (FLAGSHIP PIONEERING INNOVATIONS VI, dated 2025)
Numbering of substitutions follows the chain as printed.

B1: AB-1 full-length IgG1 (antibody, V domains shown)
VH: EVQLEESGTVLARPGASVKMSCKASGYTFTTYWMHWIKQRPGQGLEWIGAIYPGNSDTQYNQKFKDKAKLTAVKSTSSAYMELSSLTNEDSAVYFCTREGIPQLLRTLDYWGQGTSVTVSS
VL: DILMTQSPSSLSASLGERVSLTCRASQEISGYLSWLQEKPDGTIKRLIYAASTLDSGVPKRFSGSRSGSDYSLTISSLESEDFADYYCLQYLSYPWTFGGGTKLEIK
B2: AB-5 full-length IgG1 (antibody, V domains shown)
VH: B1 VH with T31S, S56G, Q59N, R106N, Y110V
VL: B1 VL with L89Q
B3: AB-10 full-length IgG1 (humanized) (antibody, V domains shown)
VH: QVQLVQSGAEVKKPGASVKVSCKASGYTFTSYWMHWVRQAPGQGLEWMGAIYPGNGDTNYAQKFQGRVTMTADTSISTAYMELSRLRSDDTAVYYCTREGIPQLLNTLDVWGQGTLVTVSS
VL: DIQMTQSPSSLSASVGDRVTITCRASQEISGYLNWYQQKPGKAPKRLIYAASSLQSGVPSRFSGSGSGTDFTLTISSLQPEDFATYYCQQYLSYPWTFGQGTKVEIK
B4: AB-12 full-length IgG1 (humanized) (antibody, V domains shown)
VH: EVQLVQSGAEVKKPGESLKISCKASGYTFTTYWMHWVRQMPGKGLEWMGAIYPGNSDTRYSPSFQGQVTLSVDKSITTAYLQWNSLKASDTAMYFCTREGIPQLLRTLDYWGQGTLVTVSS
VL: B3 VL with E28G, N34S, Y36L, G41E, S53T, V104L
B5: AB-11 full-length IgG1 (humanized) (antibody, V domains shown)
VH: B4 VH with P14S, R59Q, V72A, T77S, N84S
VL: EIVLTQSPGTLSLSPGERATLSCRASQEISGYLAWLQQKPGQAPRRLIYAASSLATGIPDRFSGSGSGTDFTLTISRLEPEDFAVYYCLQYLSYPWTFGQGTKVEIK
B6: AB-2 full-length IgG1 (antibody, V domains shown)
VH: B1 VH with S56G, Q59N
VL: B1 VL
B7: AB-9 full-length IgG1 (antibody, V domains shown)
VH: B1 VH with T31S, Q59N, K74T
VL: B1 VL
B8: AB-3 full-length IgG1 (antibody, V domains shown)
VH: B1 VH with S56G, Q59N, L104K, Y110V
VL: B1 VL
B9: AB-8 full-length IgG1 (antibody, V domains shown)
VH: B1 VH with Q59I
VL: B1 VL
B10: AB-4 full-length IgG1 (antibody, V domains shown)
VH: B1 VH with S56G, Q59N, L108F
VL: B1 VL with S30G
B11: AB-6 full-length IgG1 (antibody, V domains shown)
VH: B1 VH with T31S, Q59N, L105T
VL: B1 VL
B12: AB-7 full-length IgG1 (antibody, V domains shown)
VH: B1 VH with T31S, Q59N, T107S
VL: B1 VL

Biological target: T1, SARS-CoV-2 Spike protein receptor-binding domain (RBD) (SARS-CoV-2, UniProt P0DTC2 319-527)
Test: BLI (Octet), IgG captured on anti-human Fc sensors, RBD in solution

Binder	Kd
B1	39 nM

Biological target: T1, SARS-CoV-2 Spike protein …
Test: BLI (Octet Red96e), IgG captured on anti-human Fc sensors, RBD in solution

Binder	Kd	koff	kon
B1	39 nM	0.0024 s⁻¹	62000 M⁻¹ s⁻¹

Biological target: T1, SARS-CoV-2 Spike protein …
Test: BLI (Octet), IgG1 captured on anti-human Fc sensors, RBD in solution; for Req: test concentration or dose not given here; for Response: test concentration or dose not given here; for kobs: test concentration or dose not given here

Binder	Kd	Req	Response	kobs	koff	kon
B1	15.9 nM	0.388 nm shift	0.364 nm shift	0.00924 s⁻¹	0.00127 s⁻¹	79700 M⁻¹ s⁻¹
B2	41.3 nM	0.318 nm shift	0.315 nm shift	0.0117 s⁻¹	0.00341 s⁻¹	82500 M⁻¹ s⁻¹
B3	25.4 nM	0.102 nm shift	0.114 nm shift	0.0151 s⁻¹	0.00306 s⁻¹	121000 M⁻¹ s⁻¹
B4	32.4 nM	0.135 nm shift	0.145 nm shift	0.0149 s⁻¹	0.00366 s⁻¹	113000 M⁻¹ s⁻¹
B5	32.7 nM	0.326 nm shift	0.319 nm shift	0.0104 s⁻¹	0.00255 s⁻¹	78000 M⁻¹ s⁻¹

Biological target: T1, SARS-CoV-2 Spike protein …
Test: not given

Binder	Kd
B1	34.2 nM
B6	127 nM
B7	98.8 nM
B8	177 nM
B9	104 nM
B2	148 nM
B10	151 nM
B11	103 nM
B12	386 nM

Biological target: SARS-CoV-2 Spike as carried on rVSV-SARS-CoV-2 pseudovirus and authentic WT virus (SARS-CoV-2, UniProt P0DTC2 14-1273)
Test: cell-based or functional assay

Binder	Neutralization (ng/mL), Authentic Virus IC50	Neutralization (ng/mL), Authentic Virus IC80	Neutralization (ng/mL), Pseudovirus IC50	Neutralization (ng/mL), Pseudovirus IC80	Neutralization (ng/mL), Pseudovirus IC90
B1	78 ng/mL	543 ng/mL	0.0782 ng/mL	2.6 ng/mL	9.56 ng/mL
B6	379 ng/mL	3030 ng/mL	9.65 ng/mL	35.2 ng/mL	760 ng/mL
B7	100 ng/mL	627 ng/mL	0.824 ng/mL	4.14 ng/mL	9.95 ng/mL
B8	3550 ng/mL	11100 ng/mL	17.6 ng/mL	110 ng/mL	502 ng/mL
B9	222 ng/mL	1600 ng/mL	0.792 ng/mL	3.34 ng/mL	7.6 ng/mL
B2	260 ng/mL	2460 ng/mL	8.25 ng/mL	35.2 ng/mL	71.1 ng/mL
B11	25000 ng/mL	25000 ng/mL	6.15 ng/mL	27.2 ng/mL	58.4 ng/mL
B12			24.6 ng/mL		
